From the supplement of paper PMC10724198 come the findings set out here.

± gives the standard deviation of the averaged measurements.
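Also: PSI is a weighted mean of sequencing reads over stability bins, variants kept only with over 10 reads, mCherry proximal and sfGFP distal, peptide attached via GGGS linker.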

The test system of this series is Saccharomyces cerevisiae. The series is described as follows: protein stability index of tFT-peptide fusion (C-terminal peptide) (PSI (0-1 scale)); higher = more stable (slower turnover). To be noted: genetic background: wild type; temperature: 30 C. How it is done:
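Multiplexed protein stability (MPS) profiling in S. cerevisiae. Random 12-aa peptides (tFT-X12 library) are fused to the C-terminus of a sfGFP-mCherry tandem fluorescent timer, after mCherry and a GGGS linker. Cells are FACS-sorted into 8 mCherry/sfGFP bins and deep-sequenced. The protein stability index (PSI) is the read-weighted bin average, scaled from 0 (unstable) to 1 (stable). Only peptides with >10 reads are reported; cells were grown at 30 °C in SC-His with glucose.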
EGSGEGEEAGGV had a protein stability index of 0.6497 ± 0.0047.
On to EGSGLVVANAYP, for which the protein stability index is 0.667 ± 0.022.
EGVAGEWRGMEM returned a protein stability index of 0.65 ± 0.014.
EGWVVYFEEDLE came in with a protein stability index of 0.735 ± 0.017.
On to EHKVQTTTNQKE, for which the protein stability index was 0.697 ± 0.011.
EHQNHNTARKRH returned a protein stability index of 0.69835 ± 0.00027.
To EIGGYHLGWAKC belongs 0.636 ± 0.022.
To EIIEINNVKRIK belongs 0.6835 ± 0.0049; to EIKGKLQEGRMD, 0.75 ± 0.021; to EINEKPGINKKI, 0.6587 ± 0.0028.
The sequence EIVKAHKVKKRK returned a protein stability index of 0.7166 ± 0.0045.
To EIYARVQERLKI belongs 0.617 ± 0.016; to EKDRAVGAAKAA, 0.631 ± 0.12; to EKERRATCPGRK, 0.652 ± 0.051.
Regarding EKESERGREKDS, the protein stability index was found to be 0.747 ± 0.12.
Take EKIKKTEKNKNK: the protein stability index was 0.6755 ± 0.0042.
For EKKEGEREKQED the value was 0.751 ± 0.15.
For EKKKKKKEEREK the value was 0.728 ± 0.16; for EKKKKKPKKKRK, 0.687 ± 0.026; for EKKKKKTAKQLK, 0.671 ± 0.085.
Turning to EKKKKTKKEKKK, the protein stability index was 0.677 ± 0.0082.
Sequence EKKLKNEEKKEI returned a protein stability index of 0.717 ± 0.04.
To EKLRGRKKGELQ belongs 0.668 ± 0.036.
Take EKQICKVVKIKE: the protein stability index was 0.777 ± 0.048.
Sequence EKRAKKKVKIII displayed a protein stability index of 0.62 ± 0.035.
With EKRDEGAGKGEQ, the protein stability index was determined as 0.63 ± 0.014.
Turning to EKSQMPPAPAPK, the protein stability index is 0.703 ± 0.04.
For EKVASLVTIFDM the value was 0.695 ± 0.024; for ELASLSPCCMGM, 0.762 ± 0.15.
With ELDFVVNKIQDW, the protein stability index was 0.828 ± 0.096.
To ELFGGQRLARNY belongs 0.637 ± 0.057; to ELTLTVFQVGEE, 0.602 ± 0.025; to ELVGRRAFRASR, 0.693 ± 0.12.
As for ENANWHSKNMSK, the protein stability index came out at 0.723 ± 0.071.
In turn, ENEKKKKNKNKN registered a protein stability index of 0.7 ± 0.049.
For ENIENGRPKTEP the value was 0.644 ± 0.012; for ENKTNKEKQQKQ, 0.691 ± 0.012; for EPCIVCPMSRQG, 0.773 ± 0.11.
For EPGGSKRSGGRL the value was 0.686 ± 0.03.
In the case of EPWTEQPKLDSR, the protein stability index stood at 0.936 ± 0.091.
For EPYHYAWTQRSW, the protein stability index was found to be 0.698 ± 0.015.
As to EQKVRSPIEMML, the protein stability index is 0.591 ± 0.0064.
Regarding EQQLSHENMQFK, the protein stability index came to 0.68 ± 0.01.
Sequence EQRRAGPAEVTK returned a protein stability index of 0.694 ± 0.04.
Turning to EQSWAIQKVRQG, the protein stability index came out at 0.737 ± 0.025.
For ERARGGRGVGGN, the protein stability index came out at 0.678 ± 0.033.
To ERARGKGAGKAE belongs 0.688 ± 0.019.
To ERERQREKEKLK belongs 0.6735 ± 0.0038.
With ERFRWRRNRSLG, the protein stability index was 0.672 ± 0.16.
To ERGEEESGRSGS belongs 0.7225 ± 0.0046; to ERGGWGVGSEVG, 0.719 ± 0.03.
For ERGKRSTEWARK the value was 0.681 ± 0.042.
For ERGRRPAGGGEK the value was 0.719 ± 0.028; for ERIGVEERKGLE, 0.658 ± 0.021; for ERKDPNTNKVKS, 0.678 ± 0.0083.
Consider ERKKKKKERARG, for which the protein stability index turned out to be 0.767 ± 0.1.
The sequence ERNKKKNNQVNK yielded a protein stability index of 0.619 ± 0.054.
For ERNNTICREIIE the value was 0.686 ± 0.026; for ERRELSAHVYLD, 0.665 ± 0.1; for ERRGGRKGRGRE, 0.662 ± 0.02.
In the case of ERRGSLSWPIPP, the protein stability index worked out at 0.722 ± 0.036.
ERSKTMVAGGEE yielded a protein stability index of 0.686 ± 0.062.
For the sequence ERVMMKNDSIVT, the protein stability index was found to be 0.623 ± 0.1.
ESKATIRTRARN registered a protein stability index of 0.74 ± 0.028.
